Test results published in patent publication US20250215070A1.

Columns and labels:
[1] = biological target: human Collagen triple helix repeat-containing protein 1 (CTHRC1) (human) (UniProt Q96CG8); test: binding EC50 on huCTHRC1; method not stated (ELISA named in text)
[2] = biological target: human Collagen triple helix repeat-containing protein 1 (CTHRC1) (human) (UniProt Q96CG8); test: bio-layer interferometry; CTHRC1 species not stated

Chain of human Collagen triple helix repeat-containing protein 1 (CTHRC1) (human) (Q96CG8 31-243): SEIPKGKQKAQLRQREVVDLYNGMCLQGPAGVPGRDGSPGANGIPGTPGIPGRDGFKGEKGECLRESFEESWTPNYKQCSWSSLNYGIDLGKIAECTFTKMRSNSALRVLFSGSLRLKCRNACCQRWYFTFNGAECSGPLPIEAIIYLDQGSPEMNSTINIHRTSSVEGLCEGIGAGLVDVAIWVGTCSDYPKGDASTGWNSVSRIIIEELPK

Row | Binder | EC50 [1] [nM] | Kd [2] [nM]
1 | CTHRC1S-M11 (antibody, V domains shown) VH: QVTLRESGPALVKPTQTLTLTCTFSGFSLSTNVMCVSWIRQPPGKALEWLALIDWDDDKYYSTSLKTRLTISKDTSKNQVVLTMTNMDPVDTATYYCARTGITGTHYYYYYMDVWGKGTTVTVSS VL: AIQMTQSPSSLSASVGDRVTITCRASQGIRNDLGWYQQKPGKAPKLLIYAASSLQSGVPSRFSGSGFGTDFTLTISSLQPEDFATYYCLQDYNYPWTFGQGTKVEIK | 9.76 | 2
2 | CTHRC1S-M5 (antibody, V domains shown) VH: EVQLVESGGGLVTPGGSLRLSCAASGFTFSTYSMNWVRQAPGKGLEWVSSISGSSGHIYYADSVRGRFTISRDNAKNSLYLQMNSLRAEDTAVYYCASMHYYYYLDVWGKGTTVTVSS VL: QAVVTQESALTTSPGETVTLTCRSSTGTVTTSNYVTWVQEKPDHLFTGLIGATNNRAPGVPARFSGSLIGDKAALTITGAQTEDEAIYFCALWYSNHWVFGGGTKLTVL | 1.85 | 3.18
3 | CTHRC1S-M14 (antibody, V domains shown) VH: EVQVVESGGGLVQPGGSLRLSCAASRFTFSNYWMSWVRQAPGRGLEWVANIKQDGSEKYYVDSVKGRFTISRDNAKNSLYLQMNSLRAEDTAVYYCAREGGYCSDTRCFFYMDVWGKGTTVTVSS VL: DIQMTQSPSTLSASVGDRVTITCRASQSIISWLAWYQQKPGKAPKLLIYKASSLEGGVPSRFSGSGSGTDFTLTISSLQPDDFATYYCQQYNSYSRTFGQGTTVEIK | 0.05 | < 0.001
